Data from IntAct's records for PubMed 10198631.

B1: Bcl-2-like protein 11 (Mus musculus), O54918-2 (parent)
chain: MAKQPSDVSSECDREGGQLQPAERPPQLRPGAPTSLQTEPQDRSPAPMSCDKSTQTPSPPCQAFNHYLSAMASIRQSQEEPEDLRPEIRIAQELRRIGDEFNETYTRRVFANDYREAEDHPQMVILQLLRFIFRLVWRRH

Variants of: B1
Conditions: with dlrb1_human DYNLRB1, Q9NP97
Chain of dlrb1_human DYNLRB1, Q9NP97 (Q9NP97 whole entry): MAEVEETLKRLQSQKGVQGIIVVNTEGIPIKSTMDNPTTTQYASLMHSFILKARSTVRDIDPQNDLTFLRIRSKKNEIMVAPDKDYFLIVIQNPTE

Effect of a mutation on the interaction, decreasing interaction:
T54A
T54A;N65S
S53P
